The target in experiment [1] is T1, CI hexamer (hexameric CI domain M1–S253) (Thermosynechococcus vestitus, UniProt Q79V60).
T1 construct: gene kaiC; CI domain M1-S253 made by trypsin digestion of KaiCAA (the S431A/T432A sites lie outside), hexamer
Briefly: native mass spectrometry after trypsin digestion. Particulars: KaiCAA incubated with 1 mM ATP, 37°C, 5 h; 150 mM ammonium acetate; 0.02 mg/ml trypsin up to 60 min. It counts as binding.

The target in experiment [2] is CI domain (M1–S253) of KaiCAA, tryptic fragment, hexamer (T. elongatus BP-1). As to the kind of experiment: native MS; KaiCAA hexamer (1 mM ATP, 5 h, 37°C) exchanged into 150 mM ammonium acetate and digested with 0.02 mg/ml trypsin for 0, 30 and 60 min, analysed directly.
The target of experiment [3] is KaiCAA (KaiC with Ser431 and Thr432 both substituted with alanine), hexamer (T. elongatus BP-1) (UniProt Q79V60). As to the kind of experiment: native MS; KaiC mutant (20 uM) alone, hexamerised with 1 mM ATP, 5 h at 37°C, exchanged into 150 mM ammonium acetate pH 6.8, nanoflow ESI.
For experiment [4] the target is unchanged. As to the kind of experiment: native MS; KaiC mutant (20 uM) alone, hexamerised with 1 mM AMPPNP, 5 h at 37°C, exchanged into 150 mM ammonium acetate pH 6.8, nanoflow ESI.
Experiment [5] deals with KaiCDD (KaiC with Ser431 and Thr432 both substituted with aspartate), hexamer (T. elongatus BP-1) (UniProt Q79V60). As to the kind of experiment: native MS; KaiC mutant (20 uM) alone, hexamerised with 1 mM ATP, 5 h at 37°C, exchanged into 150 mM ammonium acetate pH 6.8, nanoflow ESI.
For experiment [6] the target is unchanged. Briefly: native MS; KaiC mutant (20 uM) alone, hexamerised with 1 mM AMPPNP, 5 h at 37°C, exchanged into 150 mM ammonium acetate pH 6.8, nanoflow ESI.
In experiment [7] the target is KaiC_(AA/E77Q) (KaiCAA with the catalytic glutamate Glu77 of the CI ATPase domain substituted by glutamine), hexamer (T. elongatus BP-1) (UniProt Q79V60). As to the kind of experiment: native MS; KaiC mutant (20 uM) alone, hexamerised with 1 mM ATP, 5 h at 37°C, exchanged into 150 mM ammonium acetate pH 6.8, nanoflow ESI.
Experiment [8] addresses KaiCAA (KaiC with Ser431 and Thr432 both substituted with alanine), hexamer (T. elongatus BP-1) (UniProt Q79V60). As to the kind of experiment: native MS; 6:1, 6:3, 6:6 and 6:9 mixtures of KaiCAA and KaiA (up to excess KaiA), 1 mM ATP, 5 h at 37°C, nanoflow ESI.
Experiment [9] shares this target. As to the kind of experiment: native MS; 6:3 mixture of KaiC mutant (20 uM) and KaiA (10 uM), 1 mM ATP, 5 h at 37°C, 150 mM ammonium acetate pH 6.8, nanoflow ESI.
Experiment [10] deals with KaiCDD (KaiC with Ser431 and Thr432 both substituted with aspartate), hexamer (T. elongatus BP-1) (UniProt Q79V60). The experiment is described as above.
Experiment [11] has as its target KaiC_(AA/E77Q) (KaiCAA with the catalytic glutamate Glu77 of the CI ATPase domain substituted by glutamine), hexamer (T. elongatus BP-1) (UniProt Q79V60). The experiment is described as above.
For experiment [12], the target named is KaiCAA (KaiC with Ser431 and Thr432 both substituted with alanine), hexamer (T. elongatus BP-1) (UniProt Q79V60). As to the kind of experiment: native MS; 6:3 mixture of KaiC mutant (20 uM) and KaiA (10 uM), 1 mM AMPPNP, 5 h at 37°C, 150 mM ammonium acetate pH 6.8, nanoflow ESI.
Experiment [13] addresses KaiCDD (KaiC with Ser431 and Thr432 both substituted with aspartate), hexamer (T. elongatus BP-1) (UniProt Q79V60). The description is as above.

“And” between values parts separate entries of the source, which are not always exact repeats. Equal entries are not always repeated.

T1 sequence (Q79V60 1-253): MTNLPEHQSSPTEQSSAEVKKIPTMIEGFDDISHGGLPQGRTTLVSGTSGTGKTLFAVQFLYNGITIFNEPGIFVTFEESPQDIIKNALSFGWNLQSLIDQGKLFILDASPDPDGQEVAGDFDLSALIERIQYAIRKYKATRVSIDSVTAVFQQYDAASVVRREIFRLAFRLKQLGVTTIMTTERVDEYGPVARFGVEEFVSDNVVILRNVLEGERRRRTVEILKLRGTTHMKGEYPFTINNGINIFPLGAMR

As to `Nc1ncnc2c1ncn2[C@@H]1O[C@H](COP(=O)(O)OP(=O)(O)OP(=O)(O)O)[C@@H](O)[C@H]1O` [ATP], the “native mass spectrometry after trypsin digestion” value in experiment [1] is listed as “the hexameric CI domain (M1–S253) containing six ATP molecules”.

Take “CI domain (M1–S253) of KaiCAA, tryptic fragment, hexamer (domain or fragment)”: the stoichiometry N (subunits in the oligomer) in experiment [2] amounted to 6.

As to “KaiCAA (KaiC with Ser431 and Thr432 both substituted with alanine), hexamer (from UniProt Q79V60 1-518) (natural protein)”, the stoichiometry N (subunits in the oligomer) in experiment [3] and in [4] was 6 throughout.

Consider “KaiCDD (KaiC with Ser431 and Thr432 both substituted with aspartate), hexamer (from UniProt Q79V60 1-518) (natural protein)”, for which the stoichiometry N (subunits in the oligomer) in experiment [5] and in [6] was 6 in each case.

“KaiC_(AA/E77Q) (KaiCAA with the catalytic glutamate Glu77 of the CI ATPase domain substituted by glutamine), hexamer (from UniProt Q79V60 1-518) (natural protein)”: the stoichiometry N (subunits in the oligomer) in [7] came to 6.

B1: KaiA (natural protein)
chain: MAQSTALTICGLVYSPAIGQELVRLHTSDIDELVYFSSEREFCNYLEARRNSIACLILEWGEGTPQIITYLHHSATLLPAILIFPAAPAPPPAGPHYHIAEVILTTDQLDQLNRQIEEAITGFVKLCPGCAVPPHVLFRLPALKESSNVDPQHRLSQKLKERLGYLGVYYKRDTAFFFRRMSPADKRKLLDELRSIYRTIVLEYFNTDAKVNERIDEFVSKAFFADISVSQVLEIHVELMDTFSKQLKLEGRSEDILLDYRLTLIDVIAHLCEMYRRSIPREV
For the molecule B1, the stoichiometry N (KaiA molecules per KaiC hexamer) in experiment [8] was 2 and 4; in [9], 2; in [10] it was 2; in experiment [11], 2; in experiment [12], 2; in experiment [13], 2.

Values taken from paper PMC6549140, “ATP hydrolysis by KaiC promotes its KaiA binding in the cyanobacterial circadian clock system” (Life Science Alliance, 2019).
